Source: patent publication CN110294802A (INST MILITARY MEDICINE ACADEMY MILITARY SCIENCES PLA, dated 2019)

How the values were obtained:
[1] = target: HAdV7病毒原液 (human/CHN/GZ6965/2001); test: cell-based or functional assay
合成的口蹄疫病毒多肽抗原 = test: ELISA, antigen coated on plate, anti-human IgG-HRP detection

B1: 10G12抗体 (antibody, V domains shown)
VH: QVQLKQPGAELVRPGASVKLSCKASGYSFTNYWMHWMKQRPGQGLEWIGMIDPSDSETRLNQKFKDKATLTVDKSSSIAYMQLSSPTSEDSAVYYCARDRYDGGAWFDYWSQGTLVT
VL: DIVMTQTPLSLPVSLGDQASISCRSSQSLVHSNGNTYLHWYLQKPGQSPKLLIYKVSNRFSGVPDRFSVSGSGTDFTLKISRVEAEDLGVYFCSQSTHVPPTFGGGTKLEIK
notes: also called 单克隆抗体10G12
抗体对腺病毒感染的抑制率 (EC50, CPE on A549 cells) [1]: 0.2 µg/mL
binding result (合成的口蹄疫病毒多肽抗原): no binding (tested: 300μg/ml)
